Experimental data published in US20230331827A1, “POTASSIUM CHANNEL INHIBITORS” (priority 2017, published 2023).

How the values were obtained:
[1] = target: trypsin; assay: TRF, 10 ug/mL Fab on trypsin
[2] = target: trypsin; assay: TRF, 0.6 ug/mL Fab on trypsin
[3] = target: trypsin; assay: TRF, 2.4 ug/mL Fab on trypsin
[4] = target: human Kv1.3 (human) (UniProt P22001); assay: cell-based or functional assay
[5] = target: β-galactosidase; assay: phage TRF on β-galactosidase
[6] = target: human Kv1.1 (human) (UniProt Q09470); assay: cell-based or functional assay
human Kv1.1 (human), sequence (Q09470 whole entry): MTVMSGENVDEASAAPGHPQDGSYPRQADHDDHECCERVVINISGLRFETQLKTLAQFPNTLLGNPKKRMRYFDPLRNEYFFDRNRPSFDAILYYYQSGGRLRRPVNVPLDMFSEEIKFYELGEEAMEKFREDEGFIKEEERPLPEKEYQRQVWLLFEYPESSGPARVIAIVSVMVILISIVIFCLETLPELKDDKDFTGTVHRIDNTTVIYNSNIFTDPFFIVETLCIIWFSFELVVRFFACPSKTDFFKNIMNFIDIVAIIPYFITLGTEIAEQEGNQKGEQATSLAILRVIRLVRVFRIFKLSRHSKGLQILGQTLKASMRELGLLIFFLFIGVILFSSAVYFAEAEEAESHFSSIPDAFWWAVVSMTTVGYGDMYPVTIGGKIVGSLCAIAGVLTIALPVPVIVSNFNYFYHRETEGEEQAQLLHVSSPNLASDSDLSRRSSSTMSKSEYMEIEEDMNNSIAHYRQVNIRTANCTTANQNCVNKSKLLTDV

[7] = target: human Kv1.3 (human) (UniProt P22001); assay: cell-based or functional assay; remark: listed apart in the source

β-galactosidase, sequence (P00722 2-1024): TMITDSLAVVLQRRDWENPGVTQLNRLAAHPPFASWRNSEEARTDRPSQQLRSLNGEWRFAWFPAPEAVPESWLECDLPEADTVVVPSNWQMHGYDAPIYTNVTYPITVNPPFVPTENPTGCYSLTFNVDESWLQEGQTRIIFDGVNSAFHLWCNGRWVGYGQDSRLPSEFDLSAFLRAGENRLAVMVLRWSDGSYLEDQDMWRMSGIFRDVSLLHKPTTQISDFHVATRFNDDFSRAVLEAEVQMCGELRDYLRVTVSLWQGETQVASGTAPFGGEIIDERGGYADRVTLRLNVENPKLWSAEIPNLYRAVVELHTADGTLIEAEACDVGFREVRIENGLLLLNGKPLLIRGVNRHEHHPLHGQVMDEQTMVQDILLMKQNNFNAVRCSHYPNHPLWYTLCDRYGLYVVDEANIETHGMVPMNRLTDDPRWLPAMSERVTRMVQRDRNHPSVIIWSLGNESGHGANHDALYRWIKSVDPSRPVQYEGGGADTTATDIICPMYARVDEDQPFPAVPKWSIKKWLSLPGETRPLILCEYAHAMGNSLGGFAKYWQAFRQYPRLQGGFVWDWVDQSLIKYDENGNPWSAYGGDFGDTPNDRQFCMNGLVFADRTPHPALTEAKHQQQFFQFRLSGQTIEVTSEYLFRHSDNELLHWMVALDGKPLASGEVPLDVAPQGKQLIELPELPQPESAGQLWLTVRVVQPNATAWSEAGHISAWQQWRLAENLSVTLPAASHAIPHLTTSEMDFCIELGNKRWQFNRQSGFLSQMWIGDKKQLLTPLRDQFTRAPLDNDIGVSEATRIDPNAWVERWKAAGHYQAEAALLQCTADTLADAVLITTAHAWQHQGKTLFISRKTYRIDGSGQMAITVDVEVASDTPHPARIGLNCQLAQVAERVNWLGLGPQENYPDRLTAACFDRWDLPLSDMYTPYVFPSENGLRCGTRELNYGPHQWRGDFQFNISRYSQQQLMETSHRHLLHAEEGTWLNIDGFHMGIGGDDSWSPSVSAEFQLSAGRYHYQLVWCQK
human Kv1.3 (human), sequence (P22001 whole entry): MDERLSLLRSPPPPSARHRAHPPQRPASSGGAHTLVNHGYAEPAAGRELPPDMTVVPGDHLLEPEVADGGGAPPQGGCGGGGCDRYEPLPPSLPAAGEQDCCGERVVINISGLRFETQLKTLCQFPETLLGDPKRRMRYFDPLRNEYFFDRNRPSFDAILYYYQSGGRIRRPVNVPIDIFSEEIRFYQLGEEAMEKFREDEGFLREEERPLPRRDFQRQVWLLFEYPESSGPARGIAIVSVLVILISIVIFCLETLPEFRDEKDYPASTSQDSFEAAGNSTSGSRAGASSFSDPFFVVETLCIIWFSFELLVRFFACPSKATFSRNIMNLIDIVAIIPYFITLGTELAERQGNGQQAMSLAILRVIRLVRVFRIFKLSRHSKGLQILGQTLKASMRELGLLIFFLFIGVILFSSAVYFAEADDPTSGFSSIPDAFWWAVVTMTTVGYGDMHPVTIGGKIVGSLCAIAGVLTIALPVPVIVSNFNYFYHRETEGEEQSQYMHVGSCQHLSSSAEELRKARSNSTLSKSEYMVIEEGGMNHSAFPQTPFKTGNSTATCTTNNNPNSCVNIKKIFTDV

| Binder | TRF signal [1] | TRF signal [2] | TRF signal [3] | TRF signal [5] | also measured |
| --- | --- | --- | --- | --- | --- |
| KB_A12 Fab (Fab, V domains shown) VH: EVQLVESGGGLVRPGGSLRLSCAASGFTFSSYAMSWVRQAPGKGLEWVSAISGSGGSTYYADSVKGRFTISRDNTKNSLYLQMTSLRADDTAFYYCVDFGPGYGTGWFDYWGPGTLVTVSS VL: AVNWYQQLPGKAPKLLIYAAGRCPRILMRCKQDSDCLAGCVCGPNGFCGANSGVSDRFSAAKSGTSASLAINGLRSEDEADYYCAAWDDSLNGYVFGTGTKLTVLG | 253000 | 102000 | 222000 | – | – |
| KB_A07_HsTx1 (antibody, V domains shown) VH: EVQLVESGGGLVRPGGSLRLSCAASGFTFSSYAMSWVRQAPGKGLEWVSAISGSGGSTYYADSVKGRFTISRDNTKNSLYLQMTSLRADDTAFYYCVKDFGPGYGTGWFDYWGPGTLVTVSS VL: NWYQQKPGKAPKLLIYAAGVASCRTPKDCADPCRKETGCPYGKCMNRKCKCNRCSRSGVPSRFSGSGSGTDFTLTISSLQPEDFATYYCQQGASPPYTFGQGTKVEIKR | – | – | – | – | IC50, huKv1.3 current, QPatch patch clamp [4]: 4.7 nM |
| KB_B02 Fab (Fab, V domains shown) VH: EVQLVESGGGLVRPGGSLRLSCAASGFTFSSYAMSWVRQAPGKGLEWVSAISGSGGSTYYADSVKGRFTISRDNTKNSLYLQMTSLRADDTAFYYCVKDFGPGYGTGWFDYWGPGTLVTVSS VL: AVNWYQQLPGKAPKLLIYAAVGCPRILMRCKQDSDCLAGCVCGPNGFCGTGSGIPERFSGSKSGNTASLTISGLQAEDEGDYYCAAWDDSLSGPVFGGGTKLTVLG | 56600 | 2340 | 15900 | – | – |
| KB_A12_B-gal_G05 (scFv, V domains shown) VH: EVQLVESGGGLVRPGGSLRLSCAASGFTFSSYAMSWVRQAPGKGLEWVSAISGSGGSTYYADSVKGRFTISRDNTKNSLYLQMTSLRADDTAFYYCVKDFGPGYGTGWFDYWGPGTLVTVSS VL: AVNWYQQLPGKAPKLLIYAAGRCLDTVNLRRRCKQDSDCLAGCVCGPNGFCGANSGVSDRFSAAKSGTSASLAINGLRSEDEADYYCAAWDDSLNGYVFGTGTKLTVLG | – | – | – | 529000 | – |
| KB_A12_B-gal_H02 (scFv, V domains shown) VH: EVQLVESGGGLVRPGGSLRLSCAASGFTFSSYAMSWVRQAPGKGLEWVSAISGSGGSTYYADSVKGRFTISRDNTKNSLYLQMTSLRADDTAFYYCVKDFGPGYGTGWFDYWGPGTLVTVSS VL: AVNWYQQLPGKAPKLLIYAAGRCEQTSVIRRHCKQDSDCLAGCVCGPNGFCGANSGVSDRFSAAKSGTSASLAINGLRSEDEADYYCAAWDDSLNGYVFGTGTKLTVLG | – | – | – | 501000 | – |
| KB_A12_B-gal_E04 (scFv, V domains shown) VH: EVQLVESGGGLVRPGGSLRLSCAASGFTFSSYAMSWVRQAPGKGLEWVSAISGSGGSTYYADSVKGRFTISRDNTKNSLYLQMTSLRADDTAFYYCVKDFGPGYGTGWFDYWGPGTLVTVSS VL: AVNWYQQLPGKAPKLLIYAAGRCLATTSIRRPCKQDSDCLAGCVCGPNGFCGANSGVSDRFSAAKSGTSASLAINGLRSEDEADYYCAAWDDSLNGYVFGTGTKLTVLG | – | – | – | 523000 | – |
| KB_A12_B-gal_F07 (scFv, V domains shown) VH: EVQLVESGGGLVRPGGSLRLSCAASGFTFSSYAMSWVRQAPGKGLEWVSAISGSGGSTYYADSVKGRFTISRDNTKNSLYLQMTSLRADDTAFYYCVKDFGPGYGTGWFDYWGPGTLVTVSS VL: AVNWYQQLPGKAPKLLIYAAGRCRTTANVRRHCKQDSDCLAGCVCGPNGFCGANSGVSDRFSAAKSGTSASLAINGLRSEDEADYYCAAWDDSLNGYVFGTGTKLTVLG | – | – | – | 246000 | – |
| KB_A12_B-gal_F03 (scFv, V domains shown) VH: EVQLVESGGGLVRPGGSLRLSCAASGFTFSSYAMSWVRQAPGKGLEWVSAISGSGGSTYYADSVKGRFTISRDNTKNSLYLQMTSLRADDTAFYYCVKDFGPGYGTGWFDYWGPGTLVTVSS VL: AVNWYQQLPGKAPKLLIYAAGRCLATTSIRRHCKQDSDCLAGCVCGPNGFCGANSGVSDRFSAAKSGTSASLAINGLRSEDEADYYCAAWDDSLNGYVFGTGTKLTVLG | – | – | – | 289000 | – |
| KB_A12_B-gal_F09 (scFv, V domains shown) VH: EVQLVESGGGLVRPGGSLRLSCAASGFTFSSYAMSWVRQAPGKGLEWVSAISGSGGSTYYADSVKGRFTISRDNTKNSLYLQMTSLRADDTAFYYCVKDFGPGYGTGWFDYWGPGTLVTVSS VL: AVNWYQQLPGKAPKLLIYAAGRCIATSHIRRHCKQDSDCLAGCVCGPNGFCGANSGVSDRFSAAKSGTSASLAINGLRSEDEADYYCAAWDDSLNGYVFGTGTKLTVLG | – | – | – | 258000 | – |
| KB_C08 Fab (Fab, V domains shown) VH: EVQLVESGGGLVRPGGSLRLSCAASGFTFSSYAMSWVRQAPGKGLEWVSAISGSGGSTYYADSVKGRFTISRDNTKNSLYLQMTSLRADDTAFYYCVKDFGPGYGTGWFDYWGPGTLVTVSS VL: AVNWYQQLPGKAPKLLIYAAAVCPRILMRCKQDSDCLAGCVCGPNGFCGTRSGIPERFSGSKSGTSAFLAISGLRSEDEADYYCAAWDDSLSGVVFGGGTKLTVLG | 183000 | 51100 | 131000 | – | – |
| KB_A12_HsTx1 R14A (antibody, V domains shown) VH: EVQLVESGGGLVRPGGSLRLSCAASGFTFSSYAMSWVRQAPGKGLEWVSAISGSGGSTYYADSVKGRFTISRDNTKNSLYLQMTSLRADDTAFYYCVKDFGPGYGTGWFDYWGPGTLVTVSS VL: NWYQQLPGKAPKLLIYAAGRASCRTPKDCADPCAKETGCPYGKCMNRKCKCNRCANSGVSDRFSAAKSGTSASLAINGLRSEDEADYYCAAWDDSLNGYVFGTGTKLTVLG | – | – | – | – | Kv1.1 IC50, QPatch patch clamp [6]: 2990 nM; Fold difference (Kv1.1 IC50 against Kv1.3 IC50) [7]: > 3500 fold; Kv1.3 IC50, QPatch patch clamp [7]: 0.9 nM |
| KB_A12_B-gal_E05 (scFv, V domains shown) VH: EVQLVESGGGLVRPGGSLRLSCAASGFTFSSYAMSWVRQAPGKGLEWVSAISGSGGSTYYADSVKGRFTISRDNTKNSLYLQMTSLRADDTAFYYCVKDFGPGYGTGWFDYWGPGTLVTVSS VL: AVNWYQQLPGKAPKLLIYAAGRCRETSSLRRPCKQDSDCLAGCVCGPNGFCGANSGVSDRFSAAKSGTSASLAINGLRSEDEADYYCAAWDDSLNGYVFGTGTKLTVLG | – | – | – | 312000 | – |
| KB_A12_B-gal_H07 (scFv, V domains shown) VH: EVQLVESGGGLVRPGGSLRLSCAASGFTFSSYAMSWVRQAPGKGLEWVSAISGSGGSTYYADSVKGRFTISRDNTKNSLYLQMTSLRADDTAFYYCVKDFGPGYGTGWFDYWGPGTLVTVSS VL: AVNWYQQLPGKAPKLLIYAAGRCTQTALIRRRCKQDSDCLAGCVCGPNGFCGANSGVSDRFSAAKSGTSASLAINGLRSEDEADYYCAAWDDSLNGYVFGTGTKLTVLG | – | – | – | 62000 | – |
| KB_A12_B-gal_H03 (scFv, V domains shown) VH: EVQLVESGGGLVRPGGSLRLSCAASGFTFSSYAMSWVRQAPGKGLEWVSAISGSGGSTYYADSVKGRFTISRDNTKNSLYLQMTSLRADDTAFYYCVKDFGPGYGTGWFDYWGPGTLVTVSS VL: AVNWYQQLPGKAPKLLIYAAGRCNQTMSIRRPCKQDSDCLAGCVCGPNGFCGANSGVSDRFSAAKSGTSASLAINGLRSEDEADYYCAAWDDSLNGYVFGTGTKLTVLG | – | – | – | 518000 | – |
| KB_B01 Fab (Fab, V domains shown) VH: EVQLVESGGGLVRPGGSLRLSCAASGFTFSSYAMSWVRQAPGKGLEWVSAISGSGGSTYYADSVKGRFTISRDNTKNSLYLQMTSLRADDTAFYYCVKDFGPGYGTGWFDYWGPGTLVTVSS VL: AVNWYQQLPGKAPKLLIYAAAGCPRILMRCKQDSDCLAGCVCGPNGFCGTRSGVSDRFSGSKSGTSASLAISGLRSEDEADYYCAAWDDSLRAYVFGTGTKLTVLG | 257000 | 54800 | 153000 | – | – |
| KB_A12_B-gal_F11 (scFv, V domains shown) VH: EVQLVESGGGLVRPGGSLRLSCAASGFTFSSYAMSWVRQAPGKGLEWVSAISGSGGSTYYADSVKGRFTISRDNTKNSLYLQMTSLRADDTAFYYCVKDFGPGYGTGWFDYWGPGTLVTVSS VL: AVNWYQQLPGKAPKLLIYAAGRCHETAQIRRRCKQDSDCLAGCVCGPNGFCGANSGVSDRFSAAKSGTSASLAINGLRSEDEADYYCAAWDDSLNGYVFGTGTKLTVLG | – | – | – | 531000 | – |
| KB_A12_B-gal_F02 (scFv, V domains shown) VH: EVQLVESGGGLVRPGGSLRLSCAASGFTFSSYAMSWVRQAPGKGLEWVSAISGSGGSTYYADSVKGRFTISRDNTKNSLYLQMTSLRADDTAFYYCVKDFGPGYGTGWFDYWGPGTLVTVSS VL: AVNWYQQLPGKAPKLLIYAAGRCRTTSTIRRRCKQDSDCLAGCVCGPNGFCGANSGVSDRFSAAKSGTSASLAINGLRSEDEADYYCAAWDDSLNGYVFGTGTKLTVLG | – | – | – | 476000 | – |
| KB_C07 Fab (Fab, V domains shown) VH: EVQLVESGGGLVRPGGSLRLSCAASGFTFSSYAMSWVRQAPGKGLEWVSAISGSGGSTYYADSVKGRFTISRDNTKNSLYLQMTSLRADDTAFYYCVKDFGPGYGTGWFDYWGPGTLVTVSS VL: AVNWYQQLPGKAPKLLIYAAVGCPRILMRCKQDSDCLAGCVCGPNGFCGSASGVSDRFSGSKSGTSASLAISGLRSEDEADYYCASWDDSLRGYVFGTGTKVTVLG | 276000 | 153000 | 247000 | – | – |
| KB_C10 Fab (Fab, V domains shown) VH: EVQLVESGGGLVRPGGSLRLSCAASGFTFSSYAMSWVRQAPGKGLEWVSAISGSGGSTYYADSVKGRFTISRDNTKNSLYLQMTSLRADDTAFYYCVKDFGPGYGTGWFDYWGPGTLVTVSS VL: AVNWYQQLPGKAPKLLIYAAGPCPRILMRCKQDSDCLAGCVCGPNGFCGADSGVSDRFSGSKSGTSASLAITGLQAEDEGDYYCAAWDDSLNGLVFGGGTKVTVLG | 238000 | 41700 | 146000 | – | – |
| KB_C09 Fab (Fab, V domains shown) VH: EVQLVESGGGLVRPGGSLRLSCAASGFTFSSYAMSWVRQAPGKGLEWVSAISGSGGSTYYADSVKGRFTISRDNTKNSLYLQMTSLRADDTAFYYCVKDFGPGYGTGWFDYWGPGTLVTVSS VL: AVNWYQQLPGKAPKLLIYAAGRCPRILMRCKQDSDCLAGCVCGPNGFCGGGSGVPDRFSGSIDSSSNSASLTISGLRAEDEADYYCQSYDSSNHWVFGGGTKLTVLG | 289000 | 46800 | 205000 | – | – |
